Results: patent US20260098059A1 (ENDOMET BIOSCIENCES, published 2026)
Values joined by “and” are separate entries in the source; they are usually repeats but may differ in a detail not shown here. Equal entries are not always repeated. *1 amine or outer side, *2 acyl side, *3 side chain or, on linkers, in order; H or OH if unused. Bridges are numbered along the chain shown (N, C = ends). Primed or numbered codes have the meaning given here. [ ]: non-standard residue; d: D form. Cys(Me) = CSC[C@H](N[*:1])C(=O)[*:2]; αMeF = C[C@](N)(Cc1ccccc1)C(=O)O; Bz′ = not defined here; Ppa = not defined here; Sar = CNCC(=O)O

T1: β-catenin (UniProt P35222 134-665, limits assumed, biotinylated in the SPR and plate assays)
T1 construct: also called beta catenin; biotinylated β-catenin
T1 sequence (looked up): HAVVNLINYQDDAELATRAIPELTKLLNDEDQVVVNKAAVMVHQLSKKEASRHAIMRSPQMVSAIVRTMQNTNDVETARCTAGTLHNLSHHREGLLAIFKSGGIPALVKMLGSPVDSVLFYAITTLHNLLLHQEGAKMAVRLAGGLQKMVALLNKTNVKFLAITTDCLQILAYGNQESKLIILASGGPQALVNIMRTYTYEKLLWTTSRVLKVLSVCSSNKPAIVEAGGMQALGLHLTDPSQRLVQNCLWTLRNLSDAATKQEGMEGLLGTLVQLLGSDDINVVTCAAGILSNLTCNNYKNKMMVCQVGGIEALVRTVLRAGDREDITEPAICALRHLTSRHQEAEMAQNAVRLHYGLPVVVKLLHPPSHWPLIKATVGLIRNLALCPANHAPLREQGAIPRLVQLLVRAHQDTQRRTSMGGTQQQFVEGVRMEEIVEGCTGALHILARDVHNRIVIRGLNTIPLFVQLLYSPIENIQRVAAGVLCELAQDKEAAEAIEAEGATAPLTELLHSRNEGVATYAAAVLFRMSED


Key:
β-catenin [1] = molecular target: T1, β-catenin; assay: competitive FP
In short: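 Competitive fluorescence polarization with inhibitor peptide serially diluted from 10 nM to 30 uM; polarization read at 470 nm excitation, 520 nm emission. Experiments performed three times.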

β-catenin [2] = molecular target: T1, β-catenin; assay: cell-based or functional assay

Row | Binder | Kd (β-catenin [1]) | Wnt Reporter EC50 (β-catenin [2])
1 | KWFLISFWE (HELM PEPTIDE1{[ac].K.W.F.L.I.S.F.W.E}$PEPTIDE1,PEPTIDE1,2:R3-10:R3$$$V2.0; SMILES CC[C@H](C)[C@@H]1NC(=O)[C@H](CC(C)C)NC(=O)[C@H](Cc2ccccc2)NC(=O)[C@H](Cc2c[nH]c3ccccc23)NC(=O)[C@@H](NC(C)=O)CCCCNC(=O)CC[C@@H](C(=O)O)NC(=O)[C@H](Cc2c[nH]c3ccccc23)NC(=O)[C@H](Cc2ccccc2)NC(=O)[C@H](CO)NC1=O) [SEQ ID NO: 199] | > 400 nM and ≤ 1000 nM | ≤ 7500 nM
2 | KWGLISAWD (HELM PEPTIDE1{K.W.[O=C([C@@H](N[*:1])C1CCCCC1)[*:2]].L.I.S.A.W.D}$PEPTIDE1,PEPTIDE1,1:R3-9:R3$$$V2.0; SMILES CC[C@H](C)[C@@H]1NC(=O)[C@H](CC(C)C)NC(=O)[C@H](C2CCCCC2)NC(=O)[C@H](Cc2c[nH]c3ccccc23)NC(=O)[C@@H](N)CCCCNC(=O)C[C@@H](C(=O)O)NC(=O)[C@H](Cc2c[nH]c3ccccc23)NC(=O)[C@H](C)NC(=O)[C@H](CO)NC1=O) [SEQ ID NO: 204] | > 400 nM and ≤ 1000 nM | ≤ 7500 nM
3 | KWFLICAWD (cyclo-H2N-K(G*)WFLICAWD*-COOH) [SEQ ID NO: 207] | > 400 nM and ≤ 1000 nM | ≤ 7500 nM
4 | H-AWFLISFWG-OH [SEQ ID NO: 209] | > 400 nM and ≤ 1000 nM | ≤ 7500 nM
5 | H-MWFLIAAWG-OH [SEQ ID NO: 212] | > 400 nM and ≤ 1000 nM | ≤ 7500 nM
6 | H-MWFLI[Cys(Me)]FWG-OH [SEQ ID NO: 214] | > 400 nM and ≤ 1000 nM | ≤ 7500 nM
7 | MWALISFWG (HELM PEPTIDE1{[ac].M.W.[Cha].L.I.S.F.W.G}$$$$V2.0; SMILES CC[C@H](C)[C@H](NC(=O)[C@H](CC(C)C)NC(=O)[C@H](CC1CCCCC1)NC(=O)[C@H](Cc1c[nH]c2ccccc12)NC(=O)[C@H](CCSC)NC(C)=O)C(=O)N[C@@H](CO)C(=O)N[C@@H](Cc1ccccc1)C(=O)N[C@@H](Cc1c[nH]c2ccccc12)C(=O)NCC(=O)O) [SEQ ID NO: 216] | > 400 nM and ≤ 1000 nM | ≤ 7500 nM
8 | MWGLISFWG (HELM PEPTIDE1{[ac].M.W.[O=C([C@@H](N[*:1])C1CCCCC1)[*:2]].L.I.S.F.W.G}$$$$V2.0; SMILES CC[C@H](C)[C@H](NC(=O)[C@H](CC(C)C)NC(=O)[C@@H](NC(=O)[C@H](Cc1c[nH]c2ccccc12)NC(=O)[C@H](CCSC)NC(C)=O)C1CCCCC1)C(=O)N[C@@H](CO)C(=O)N[C@@H](Cc1ccccc1)C(=O)N[C@@H](Cc1c[nH]c2ccccc12)C(=O)NCC(=O)O, also called Hit 1) [SEQ ID NO: 217] | ≤ 400 nM | ≤ 7500 nM
9 | Ac-MWLLISFWG-OH [SEQ ID NO: 218] | ≤ 400 nM | ≤ 7500 nM
10 | Ac-MWILISFW[Sar]-OH [SEQ ID NO: 221] | ≤ 400 nM | ≤ 7500 nM
11 | {Bz′}-MWILISFWG-OH [SEQ ID NO: 223] | ≤ 400 nM | ≤ 7500 nM
12 | Ppa-MWILISFWG-OH (reading uncertain; also: printed as Ppa-MWILISFWG-COOH, also called Hit 2) [SEQ ID NO: 224] | ≤ 400 nM | ≤ 7500 nM
13 | MWILISFWG (HELM PEPTIDE1{[CC(C)(C)C(=O)[*:2]].M.W.I.L.I.S.F.W.G}$$$$V2.0; SMILES CC[C@H](C)[C@H](NC(=O)[C@H](CC(C)C)NC(=O)[C@@H](NC(=O)[C@H](Cc1c[nH]c2ccccc12)NC(=O)[C@H](CCSC)NC(=O)C(C)(C)C)[C@@H](C)CC)C(=O)N[C@@H](CO)C(=O)N[C@@H](Cc1ccccc1)C(=O)N[C@@H](Cc1c[nH]c2ccccc12)C(=O)NCC(=O)O) [SEQ ID NO: 225] | > 400 nM and ≤ 1000 nM | ≤ 7500 nM
14 | H-MW[αMeF]LISFWG-OH [SEQ ID NO: 133] | ≤ 400 nM | > 30000 nM
15 | DWFLICFWKG (HELM PEPTIDE1{[ac].D.W.F.L.I.C.F.W.K.G}$PEPTIDE1,PEPTIDE1,2:R3-10:R3$$$V2.0; SMILES CC[C@H](C)[C@@H]1NC(=O)[C@H](CC(C)C)NC(=O)[C@H](Cc2ccccc2)NC(=O)[C@H](Cc2c[nH]c3ccccc23)NC(=O)[C@@H](NC(C)=O)CC(=O)NCCCC[C@@H](C(=O)NCC(=O)O)NC(=O)[C@H](Cc2c[nH]c3ccccc23)NC(=O)[C@H](Cc2ccccc2)NC(=O)[C@H](CS)NC1=O) [SEQ ID NO: 175] | > 10000 nM and ≤ 30000 nM | > 7500 nM and ≤ 15000 nM
16 | DWFLICFWKG (HELM PEPTIDE1{D.W.F.L.I.C.F.W.K.G}$PEPTIDE1,PEPTIDE1,1:R3-9:R3$$$V2.0; SMILES CC[C@H](C)[C@@H]1NC(=O)[C@H](CC(C)C)NC(=O)[C@H](Cc2ccccc2)NC(=O)[C@H](Cc2c[nH]c3ccccc23)NC(=O)[C@@H](N)CC(=O)NCCCC[C@@H](C(=O)NCC(=O)O)NC(=O)[C@H](Cc2c[nH]c3ccccc23)NC(=O)[C@H](Cc2ccccc2)NC(=O)[C@H](CS)NC1=O) [SEQ ID NO: 176] | > 10000 nM and ≤ 30000 nM | > 7500 nM and ≤ 15000 nM
17 | XMWFLICFWD (HELM PEPTIDE1{[O=C(CCCCCN[*:1])[*:2]].M.W.F.L.I.C.F.W.D}$PEPTIDE1,PEPTIDE1,1:R1-10:R3$$$V2.0; SMILES CC[C@H](C)[C@@H]1NC(=O)[C@H](CC(C)C)NC(=O)[C@H](Cc2ccccc2)NC(=O)[C@H](Cc2c[nH]c3ccccc23)NC(=O)[C@H](CCSC)NC(=O)CCCCCNC(=O)C[C@@H](C(=O)O)NC(=O)[C@H](Cc2c[nH]c3ccccc23)NC(=O)[C@H](Cc2ccccc2)NC(=O)[C@H](CS)NC1=O) [SEQ ID NO: 189] | > 400 nM and ≤ 1000 nM | ≤ 7500 nM
18 | XMWFLICAWD (HELM PEPTIDE1{[O=C(CCCCCN[*:1])[*:2]].M.W.F.L.I.C.A.W.D}$PEPTIDE1,PEPTIDE1,1:R1-10:R3$$$V2.0; SMILES CC[C@H](C)[C@@H]1NC(=O)[C@H](CC(C)C)NC(=O)[C@H](Cc2ccccc2)NC(=O)[C@H](Cc2c[nH]c3ccccc23)NC(=O)[C@H](CCSC)NC(=O)CCCCCNC(=O)C[C@@H](C(=O)O)NC(=O)[C@H](Cc2c[nH]c3ccccc23)NC(=O)[C@H](C)NC(=O)[C@H](CS)NC1=O) [SEQ ID NO: 192] | ≤ 400 nM | ≤ 7500 nM
19 | [Ado]MWFLICAWD-OH (lactam N-10) [SEQ ID NO: 193] | > 400 nM and ≤ 1000 nM | ≤ 7500 nM
20 | [Ado]MWFLICFWD-OH (lactam N-10) [SEQ ID NO: 190] | > 400 nM and ≤ 1000 nM | ≤ 7500 nM
